Experimental data published in the supplement of paper PMC7125110.
± gives the standard error. For some of these results: Fewer inactive variants are shown than the library holds.

B1: glmS ribozyme (parent)
chain: AUAAAAGCGCCAGAACUACAGAAAUGUAGUUGACGAGGAGGAGGUUUAUCGAAUUUUCGGCGGAUGCCUCCAAA

What was measured:
Conditions in all cases: with glucosamine-6-phosphate
glucosamine-6-phosphate [1] = variants of: B1; experiment: kcat; higher = faster cleavage; RNA array
In short: (§1)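 Weighted Michaelis–Menten fits across concentrations supplied kcat and KM, based on kobs from one- or two-exponential decay fits to normalised per-tile medians. The data came from barcoded ribozyme variants transcribed in situ by E. coli RNA polymerase on sequenced MiSeq chips and tracked at 37 °C by a hybridised Cy3 probe. Glucosamine-6-phosphate (40 μM to 10 mM) in HEPES/KCl/Mg(OAc)2 buffer was flowed in.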

glucosamine-6-phosphate [2] = variants of: B1; experiment: self-cleavage kobs at 640 uM GlcN6P; higher = faster cleavage; RNA array
In short: as §1

glucosamine-6-phosphate [3] = variants of: B1; experiment: self-cleavage kobs at 2500 uM GlcN6P; higher = faster cleavage; RNA array
In short: as §1

glucosamine-6-phosphate [4] = variants of: B1; experiment: self-cleavage kobs at 10000 uM GlcN6P; higher = faster cleavage; RNA array
In short: as §1

glucosamine-6-phosphate [5] = variants of: B1; experiment: KM; higher = weaker cofactor use; RNA array
In short: as §1

glucosamine-6-phosphate [6] = variants of: B1; experiment: self-cleavage kobs at 40 uM GlcN6P; higher = faster cleavage; RNA array
In short: as §1

glucosamine-6-phosphate [7] = variants of: B1; experiment: self-cleavage kobs at 160 uM GlcN6P; higher = faster cleavage; RNA array
In short: as §1

Variant | kcat (glucosamine-6-phosphate [1]) [s⁻¹] | self-cleavage kobs at 640 uM GlcN6P (glucosamine-6-phosphate [2]) [s⁻¹] | self-cleavage kobs at 2500 uM GlcN6P (glucosamine-6-phosphate [3]) [s⁻¹] | self-cleavage kobs at 10000 uM GlcN6P (glucosamine-6-phosphate [4]) [s⁻¹] | KM (glucosamine-6-phosphate [5]) [µM] | self-cleavage kobs at 40 uM GlcN6P (glucosamine-6-phosphate [6]) [s⁻¹] | self-cleavage kobs at 160 uM GlcN6P (glucosamine-6-phosphate [7]) [s⁻¹]
A52U C70G | 7.01e-05 ± 1.1e-05 | 5.38e-05 ± 1.1e-05 | 8.15e-05 ± 8.6e-06 | 5.93e-05 ± 7.6e-06 |  |  | 
A14C C67U | 0.00159 ± 0.00047 | 0.000511 ± 6e-05 | 0.000783 ± 8.1e-05 | 0.00184 ± 0.00023 | 1720 ± 820 | 5.24e-05 ± 9e-06 | 0.000119 ± 1.7e-05
G32U U57C | 4.06e-05 ± 2.6e-06 |  |  | 3.26e-05 ± 8.4e-06 | 2420 ± 550 |  | 
G29C C61G | 2.64e-05 ± 1e-05 |  |  |  |  | < 1e-05 | 
G29U C67G | 0.000311 ± 6.2e-05 | 5.43e-05 ± 5.8e-06 | 0.000111 ± 1.3e-05 | 0.000251 ± 2.4e-05 | 3390 ± 1100 |  | 2.38e-05 ± 1e-05
U47C C58G | 6.37e-05 ± 7.3e-07 |  | 3.41e-05 ± 1.1e-05 | 5.23e-05 ± 7.5e-06 | 2170 ± 92 |  | 
C11A A42G | 0.000337 ± 5.9e-05 | 4.77e-05 ± 1.4e-05 | 0.000184 ± 4.7e-05 | 0.000239 ± 5e-05 | 3420 ± 1100 |  | 
A42U U45C | 0.000116 ± 1e-05 | 2.56e-05 ± 1.1e-05 | 5.1e-05 ± 1e-05 | 9.13e-05 ± 1.2e-05 | 2890 ± 650 |  | 
U54C U56C | 0.0062 ± 0.0012 | 0.00084 ± 0.00013 | 0.002 ± 0.00042 | 0.00471 ± 0.00069 | 4050 ± 1000 | 7.75e-05 ± 1.4e-05 | 0.000223 ± 3.3e-05
A52U U65C | < 1e-05 |  |  |  |  | < 1e-05 | 
A15C U45G | 0.000779 ± 0.00013 | 0.000218 ± 2.9e-05 | 0.000568 ± 8.2e-05 | 0.000562 ± 0.00014 | 1570 ± 400 |  | 7.06e-05 ± 1.5e-05
C10G C58A | 1.01e-05 ± 1.8e-06 | < 1e-05 |  | < 1e-05 |  |  | 
A6G U55A | 0.00056 ± 6.3e-05 | 0.000143 ± 1.7e-05 | 0.000388 ± 4.1e-05 | 0.000463 ± 4.3e-05 | 1630 ± 370 |  | 5.94e-05 ± 1.2e-05
C10A U65A | 1.06e-05 ± 3e-06 |  |  |  |  |  | 
U31A A33G C70A | 1.81e-05 ± 5.1e-06 |  |  |  |  |  | 
C16U C67G C68U | 6.15e-05 ± 1.2e-05 | 7.27e-05 ± 2.2e-05 | 6.31e-05 ± 2.8e-05 | 5.02e-05 ± 1.9e-05 |  |  | 
U47C C70U | 0.00786 ± 0.0023 | 0.00151 ± 0.00028 | 0.00519 ± 0.00095 | 0.00635 ± 0.0016 | 2070 ± 790 | 0.000179 ± 2.6e-05 | 0.000483 ± 0.00014
